Publication PMC9159911

Test system: SmpB (small protein B) (Aeromonas veronii)
Test: MST
Settings: […], pH 7.4), temperature not stated, binding buffer not stated

Substance | Kd [µM]
PompA C52AT (native ompA promoter fragment) | 0.93
PompA T52GC (CAT at +52 to TGC) | 126
